Source: patent US8124424B2, “Single molecule-format bioluminescent probe” (National Institute of Advanced Industrial Science and …, priority 2007, dated 2012)

Assays:
AR LBD [1] = test: Comparison of the DHT-induced luminescence of probes pAR-CN, pAR-NC, pAR-mut in HeLa cells; format: cell-based, human; settings: 10^−5 M DHT stimulation, FIG. 3
Description: Cervical carcinoma-derived HeLa cells were sub-cultured in 12-well plates in Dulbecco's modified eagle's medium (DMEM; Sigma) supplemented with 10% steroid-free fetal bovine serum (FBS) and 1% penicillin-streptmycin (P/S) at 37° C. in a 5% CO2 incubator. HeLa cells in 12-well plates were transfected with pAR-NC, pAR-CN, or pAR-mut using a transfection reagent, TransIT-LT1 (Minis), which guarantees about 8% transfection efficiency to HeLa cells when incubated for 24 h. The cells were incubated for 12 h and then used for the following experiments.
HeLa cells in 12-well plates were transfected with the plasmids and incubated for 16 h. […] The recovered enzyme activities by ligands were estimated with a luminescence substrate kit, Bright Glo (Promega) or Dual-luciferase assay kit (Promega), according to the manufacturer's manuals. […] After a 3 min incubation at 37° C., the luminescence intensities from the cell lysates were recorded with a luminometer (Minilumat LB9506; Berthold). The protein amounts in the cell lysates were subsequently determined using a Bradford reagent for a normalization of the luminescence intensities. In specific, the firefly luminescence, which was normalized against the determined protein amount, was expressed as “RLU/protein (Bright Glo)”. The unit means the firefly luminescence intensity from the 1 μg of cell lysate.

AR LBD [2] = target: T1, AR LBD (Homo sapiens, UniProt P10275); test: Inhibitory effects of androgen antagonists on DHT-induced luminescence, HeLa cells carrying pAR-NC and pTK-RLuc; format: cell-based; parameters: The cDNA-encoding AR LBD (672-910 AA) was modified by PCR; expressed in transfected cells; host or cells: HeLa; settings: 5×10^−4 M antagonist 20 min, then 10^−5 M DHT 20 min, FIG. 8
T1 sequence (P10275 672-910): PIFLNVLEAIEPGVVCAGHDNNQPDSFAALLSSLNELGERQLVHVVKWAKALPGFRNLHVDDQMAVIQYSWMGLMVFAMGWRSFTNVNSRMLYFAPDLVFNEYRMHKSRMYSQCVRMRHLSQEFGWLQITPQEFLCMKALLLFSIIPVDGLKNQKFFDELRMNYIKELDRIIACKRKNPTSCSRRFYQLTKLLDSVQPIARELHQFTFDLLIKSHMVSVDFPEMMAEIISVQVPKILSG
Description: HeLa cells were transfected with pAR-NC and pTK-RLuc, and extensively incubated for 16 h. […] The luminescence intensities of each well were determined with a Dual-luciferase assay kit (Promega).

AR LBD [3] = target: T1, AR LBD; test: Androgenic activity of ligands with pSimbe (CBLuc) probes in MCF-7 cells (dose-response, time-course, repetitive measurement, ligand panel); format: cell-based; settings: two stimulations with 10^−5 M DHT for 20 minutes with medium replacement, FIG. 21
Description: As controls, vehicle #1 (0.1% DMSO) and vehicle #2 (0.02M phosphoric buffer saline (PBS)) were tested.

AR LBD [4] = target: T1, AR LBD; test: Ligand selection of pSimbe-LXA probe in four cell lines (MCF-7, CHO, HeLa, NIH 3T3); format: cell-based; parameters: The cDNA-encoding AR LBD (672-910 AA) was modified by PCR; expressed in transfected cells; host or cells: HeLa; settings: 10^−5 M E2, T, DHT, 20 minutes, FIG. 16
[5] = target: T2, androgen receptor ligand binding domain (AR LBD; 672-910 AA) (human, UniProt P10275 672-910); test: cell-based or functional assay
T2 sequence (looked up): T1 sequence (P10275 672-910)

## pAR-mut: plasmid/probe with an alanine mutant (AQNLF) of the FQNLF motif (RGAAQNLFQSV)
AR LBD [1]
  luminescence intensities of probe-carrying cells compared among the three probes: four times weaker luminescence intensities than the cells carrying pAR-NC

## CC12CC1(C)C(=O)N(c1cc(Cl)cc(Cl)c1)C2=O (centres unmarked) [procymidone]
AR LBD [2]
  percentage inhibition of the DHT-induced luminescence: 68%

## pSimbe-LXA: CBLuc probe with AR LBD and reverse sequence of LXXLL motif from Xenopus TIF2 (SSDQLLRHLIKHK)
AR LBD [3]
  reversibility of luminescence on repeated DHT stimulation: reversible recovery in the luminescence intensities
AR LBD [4]
  luminescence intensity versus the background in cell lines: marked increase in the luminescence intensity versus the background

B1: AR N-terminal motif peptide (11 AA; 20RGAFQNLFQSV30), 'FQNLF' motif of human AR NTD (peptide)
peptide: RGAFQNLFQSV
[5]
  t1/2 of the rise in luminescence after 10^-6 M DHT, HeLa cells carrying pAR-NC: 4.5 min
